Data on three molecules can be found in paper PMC12610408, “An Unbiased Cell‐Culture Selection Yields DNA Aptamers as Novel Senescent Cell‐Specific Reagents”.

The data set deals with fibronectin (native, purified from mouse plasma) (mouse, UniProt P11276 33-2477). Briefly: BLI; BLI: streptavidin biosensors, biotinylated aptamer (500 nM) immobilized, fibronectin analyte, 1x Octet Kinetics Buffer, 30 C, 1:1 fit; pull-down: streptavidin Dynabeads M-270, beads washed in PBS + 5 mM MgCl2. The settings on record: protein: native; chain copies: 2; label: 5' 6-FAM; 3' BioTEG.
Chain of fibronectin (native, purified from mouse plasma) (P11276 33-2477): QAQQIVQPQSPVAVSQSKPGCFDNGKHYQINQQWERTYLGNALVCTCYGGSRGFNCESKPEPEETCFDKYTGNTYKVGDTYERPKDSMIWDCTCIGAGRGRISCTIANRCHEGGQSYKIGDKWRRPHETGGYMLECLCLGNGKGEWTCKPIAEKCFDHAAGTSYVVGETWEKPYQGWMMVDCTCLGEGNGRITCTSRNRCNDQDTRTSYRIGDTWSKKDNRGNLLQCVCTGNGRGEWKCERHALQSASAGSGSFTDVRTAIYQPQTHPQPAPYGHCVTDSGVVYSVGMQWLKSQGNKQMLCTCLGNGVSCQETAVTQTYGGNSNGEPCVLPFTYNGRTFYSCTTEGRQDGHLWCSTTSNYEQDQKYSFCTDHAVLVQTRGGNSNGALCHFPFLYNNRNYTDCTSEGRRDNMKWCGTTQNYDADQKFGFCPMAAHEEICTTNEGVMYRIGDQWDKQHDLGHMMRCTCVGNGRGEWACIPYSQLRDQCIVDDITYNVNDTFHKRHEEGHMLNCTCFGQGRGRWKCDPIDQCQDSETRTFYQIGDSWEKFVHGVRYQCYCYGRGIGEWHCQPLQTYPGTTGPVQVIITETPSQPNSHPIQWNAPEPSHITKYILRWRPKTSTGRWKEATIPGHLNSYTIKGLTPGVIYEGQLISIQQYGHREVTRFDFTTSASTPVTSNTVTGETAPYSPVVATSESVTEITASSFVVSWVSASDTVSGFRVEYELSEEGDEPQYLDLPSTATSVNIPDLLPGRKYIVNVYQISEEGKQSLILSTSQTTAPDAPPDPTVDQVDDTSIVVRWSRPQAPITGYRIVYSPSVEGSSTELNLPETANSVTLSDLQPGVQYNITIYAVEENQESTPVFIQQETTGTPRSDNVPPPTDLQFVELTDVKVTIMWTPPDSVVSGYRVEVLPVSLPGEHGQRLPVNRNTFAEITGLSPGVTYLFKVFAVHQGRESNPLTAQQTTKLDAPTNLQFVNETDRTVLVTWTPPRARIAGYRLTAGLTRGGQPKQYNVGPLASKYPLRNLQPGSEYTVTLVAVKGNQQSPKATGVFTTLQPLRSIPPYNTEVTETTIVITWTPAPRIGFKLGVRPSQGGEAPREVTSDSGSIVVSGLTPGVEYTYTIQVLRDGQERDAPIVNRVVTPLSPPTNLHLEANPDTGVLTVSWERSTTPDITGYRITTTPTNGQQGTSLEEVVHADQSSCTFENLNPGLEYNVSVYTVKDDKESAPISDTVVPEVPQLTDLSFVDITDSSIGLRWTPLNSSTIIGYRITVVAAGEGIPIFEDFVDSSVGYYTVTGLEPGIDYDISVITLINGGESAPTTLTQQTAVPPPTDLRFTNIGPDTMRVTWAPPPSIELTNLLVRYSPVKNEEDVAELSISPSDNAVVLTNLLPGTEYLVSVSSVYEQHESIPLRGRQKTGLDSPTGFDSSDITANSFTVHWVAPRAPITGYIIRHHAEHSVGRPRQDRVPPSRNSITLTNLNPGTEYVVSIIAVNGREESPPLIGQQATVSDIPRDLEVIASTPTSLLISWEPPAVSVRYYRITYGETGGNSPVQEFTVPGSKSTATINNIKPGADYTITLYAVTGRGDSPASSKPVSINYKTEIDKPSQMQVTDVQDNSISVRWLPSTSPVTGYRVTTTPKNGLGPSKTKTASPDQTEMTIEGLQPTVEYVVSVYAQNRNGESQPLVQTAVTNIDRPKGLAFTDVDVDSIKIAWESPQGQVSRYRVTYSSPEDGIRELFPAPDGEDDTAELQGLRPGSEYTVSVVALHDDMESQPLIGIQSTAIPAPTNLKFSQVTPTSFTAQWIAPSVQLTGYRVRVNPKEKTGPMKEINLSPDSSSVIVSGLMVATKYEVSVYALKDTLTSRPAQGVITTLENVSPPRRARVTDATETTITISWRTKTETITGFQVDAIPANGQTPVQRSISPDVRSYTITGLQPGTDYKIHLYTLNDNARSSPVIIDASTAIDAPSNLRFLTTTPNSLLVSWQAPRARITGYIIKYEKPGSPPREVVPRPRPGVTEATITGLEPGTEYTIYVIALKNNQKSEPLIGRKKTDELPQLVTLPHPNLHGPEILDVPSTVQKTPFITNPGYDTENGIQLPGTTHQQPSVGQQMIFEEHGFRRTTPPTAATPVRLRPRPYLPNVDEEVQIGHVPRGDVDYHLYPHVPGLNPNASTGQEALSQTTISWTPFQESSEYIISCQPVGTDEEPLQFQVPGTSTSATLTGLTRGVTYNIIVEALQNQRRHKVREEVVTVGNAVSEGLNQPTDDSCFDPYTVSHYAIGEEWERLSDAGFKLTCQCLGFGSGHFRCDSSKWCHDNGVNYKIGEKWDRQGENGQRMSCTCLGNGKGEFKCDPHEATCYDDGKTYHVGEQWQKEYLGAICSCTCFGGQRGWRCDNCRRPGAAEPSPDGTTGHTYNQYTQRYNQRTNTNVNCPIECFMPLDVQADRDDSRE

B1: negative control oligonucleotide 6766 (ssDNA)
DNA: TGCGTATTGACACATGCGTGCTTGTTATATAACGTGTCATAGCGTCCAAAAAGAAGTACACAGGCATAGGTATGGGCTTT
Take B1: the binding result is “no binding”.

B2: aptamer 6756 (ssDNA)
DNA: TGCGTATTGACACATGCGTGAAACGGACTTTTATTAGACAAATAATGCATGTCTCGAATTCAGGCATAGGTATGGGCTTT
Take B2: the dissociation constant Kd amounted to 0.921 nM.

B3: aptamer 6762 (ssDNA)
DNA: TGCGTATTGACACATGCGTGGCTTAATGCAATCCATCTGTTGCATTTTTCTAAACGTCGCCAGGCATAGGTATGGGCTTT
B3: the dissociation constant Kd worked out at 0.579 nM.
